Source: the supplement of paper PMC12667976

B1: library; numbered along this chain (parent)
chain: MATDAALRRLLRLHRTEIAVAVDSAFPLLHALADHDVVPEDKFQETLHLKEKEGCPQAFHALLSWLLTQDSTAILDFWRVLFKDYNLERYGRLQPILDSFPKDVDLSQPRKGRKPPAVPKALVPPPRLPTKRKASEEARAAAPAALTPRGTASPGSQLKAKPPKKPESSAEQQRLPLGNGIQTMSASVQRAVAMSSGDVPGARGAVEGILIQQVFESGGSKKCIQVGGEFYTPSKFEDSGSGKNKARSSSGPKPLVRAKGAQGAAPGGGEARLGQQGSVPAPLALPSDPQLHQKNEDECAVCRDGGELICCDGCPRAFHLACLSPPLREIPSGTWRCSSCLQATVQEVQPRAEEPRPQEPPVETPLPPGLRSAGEEVRGPPGEPLAGMDTTLVYKHLPAPPSAAPLPGLDSSALHPLLCVGPEGQQNLAPGARCGVCGDGTDVLRCTHCAAAFHWRCHFPAGTSRPGTGLRCRSCSGDVTPAPVEGVLAPSPARLAPGPAKDDTASHEPALHRDDLESLLSEHTFDGILQWAIQSMARPAAPFPS

Variants of: B1
Assay: AIRE transcriptional activation functional score (insulin promoter-GFP; nonsense median 0, synonymous median 1) (normalised score); higher = higher AIRE activity (more reporter activation)
Conditions: with insulin promoter-GFP reporter in HEK293
Description: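 Deep mutational scan of full-length human AIRE (codon-optimized cDNA, DT-POPCode NNN libraries over three regions) integrated at a Bxb1 landing pad in HEK293 cells carrying an insulin core promoter-GFP reporter at a Flp-In site. Cells were sorted for the top 10% GFP about 14 days after transfection. Variant frequency log-ratios (select vs non-select, TileSeq) were rescaled so that the nonsense median is 0 and the synonymous median is 1, then averaged over biological replicates.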

AIRE transcriptional activation functional score: each site, then its substitutions
D4: I 0.179 | G 0.166 | Y 0.616 | T -0.494 | E 1.26 | H -0.661 | R -0.235 | A 0.529 | W 0.262 | S 0.199 | Q -3.53 | V 0.202 | F 0.414 | C 0.509 | N 0.245 | P -0.0888 | L 0.0531
R9: E -0.057 | K -2.37 | P 0.671 | S 1.39 | N 1.38 | M 0.633 | A 1.09 | C -0.35 | Y 0.868 | G 0.856 | H 0.195 | D 0.539 | I 0.0495 | V 0.133 | W 0.515 | F -0.124 | T 0.253 | L 0.268 | Q 1.13
L11: C -0.106 | N 0.0103 | D 0.606 | Q 0.602 | H -0.271 | K 0.379 | S 0.17 | M 0.0247 | P 0.466 | E -0.17 | T -0.0406 | F 0.127 | G -0.259 | A -0.709 | I 0.208 | Y -0.339 | R 0.101 | V 0.213 | W 0.256
A19: C 0.605 | Y -2.2 | M 1.9 | H 0.194 | P -0.228 | K 0.838 | D 0.412 | T -0.102 | E 0.513 | F 0.0254 | L 0.0523 | R 0.348 | W -0.29 | Q -1.03 | G 0.563 | V -0.0384 | I -0.333 | S 0.921
L7: C -1 | D -0.451 | R 0.0717 | Y 0.122 | F -0.323 | A -0.112 | M 0.507 | P 0.0964 | K -0.0956 | H 0.927 | I 0.982 | W 0.0852 | T 1.26 | S 0.248 | V -0.199 | N -0.876 | G -0.106 | Q 0.381
L13: D -0.291 | R 1.36 | G -0.0939 | H 0.357 | S -0.217 | I 0.695 | P 0.275 | C 0.26 | M 1.23 | T 0.418 | V 0.593 | Q 0.368 | E 0.79 | F 1.11 | Y 1.42 | N -0.209 | W 0.425 | A 0.273
H14: V -0.238 | T 0.312 | P -0.256 | C -0.236 | D -0.577 | Q 0.144 | F 0.561 | L -0.153 | R -0.348 | Y 0.888 | A -0.0434 | W 0.335 | E -1.27 | M -0.84 | N 1.68 | G 0.338 | I -0.18 | S 0.00226
I18: L 0.304 | V -0.092 | G 0.378 | F 0.0176 | E 0.682 | N -0.247 | K 0.219 | A -0.708 | S 0.138 | Y -0.479 | C -0.426 | Q -0.126 | P -0.146 | D 0.751 | M 0.409 | H 0.614 | R 0.483 | W 0.00284 | T -0.194
A5: N 0.61 | W 0.849 | Y 0.397 | E 1.41 | G 0.74 | S 1.24 | T 1.04 | F 0.709 | R 1.72 | V 1.45 | M 0.955 | I 1.2 | H 0.534 | Q 0.782 | D 0.947 | P 0.767 | L 1 | C 1.17
A6: L 1.45 | F 1.43 | T 0.643 | G 1.2 | M 0.372 | I 0.395 | N -0.00395 | R 0.648 | V 0.772 | E 1.37 | S 0.223 | W 0.676 | D 1.01 | Y 2.12 | C 0.756 | Q 1.03 | H 0.532 | P 0.153
L10: G -0.12 | N -0.218 | K -1.76 | S -0.035 | D 0.416 | Y 1.01 | M 0.438 | E -0.413 | W -0.175 | I 0.238 | A -0.0675 | R 0.701 | C -0.25 | P 0.292 | F 0.827 | V -0.151 | Q -0.766 | T 0.145 | H 1.75
E17: Q -0.406 | A 0.78 | W -0.29 | P -0.151 | Y -0.411 | F -0.224 | L 0.113 | H 0.241 | R -0.438 | S -0.0199 | V 0.0123 | I -0.454 | M 0.896 | T 0.383 | G -0.233 | C -0.595 | N -0.662 | D 1.42 | K 0.389
A21: E 0.657 | F -0.0679 | C 0.675 | D -0.73
T3: P -0.0536 | G 0.0107 | E -0.211 | N 0.808 | A 1.09 | K 1.31 | M 1.74 | S 0.972 | I -0.128 | L 1.26 | V 0.465 | W 2.08 | R 1.18
R8: T -0.0815 | D 0.401 | V -0.0144 | I 0.433 | E -0.344 | Y -0.316 | Q -1.39 | A -0.421 | C 0.131 | L -0.0603 | G -0.0812 | N -0.26 | H -0.286 | K 0.485 | W -0.126 | P -0.196 | S 0.281 | F -0.127
T16: Y 0.309 | K -0.208 | D -0.128 | E 1.64 | M 0.203 | N 0.597 | R -0.0166 | L -0.113 | C 0.227 | A -0.419 | V 0.0381 | I -0.0145 | Q -0.475 | W -0.366 | F -0.112 | G 0.0399 | H -0.704 | P -0.109 | S -0.287
R15: M 0.112 | S -0.0525 | H -0.146 | C -0.257 | Y -0.904 | Q 0.45 | W 0.0452 | P -0.373 | F 0.0396 | G -0.349 | I 0.486 | A -0.222 | T 0.316 | L 0.37 | K -1.95 | V 0.0544 | D 0.279
V20: Y 0.662 | K -0.579 | L 0.278 | F 0.146 | R -0.283 | G -0.208 | M 0.622 | H -0.433 | D 0.0604 | N -0.0183 | Q -0.25 | T 0.0422 | A -0.889 | C -0.981 | W 0.633 | E -1.26 | S -0.474 | I 1.31 | P 0.184
R12: M 0.457 | L 0.419 | W -0.0189 | A -0.914 | Y -0.191 | E -0.463 | F -0.626 | G 0.415 | C -0.448 | D -0.77 | Q -1.11 | I -0.464 | S -0.0905 | K 1.84 | T -0.393 | V 0.442 | P 0.187 | H -0.211
A2: V -0.0464 | G 0.545 | S 1.27 | P 1.55 | T 0.369 | E 1.14
